US20200306373A1 (Hoffmann-La Roche, published 2020)

Assays:
human ICOS [1] = target: T1, human ICOS (human, UniProt Q9Y6W8 21-199); test: cell-based or functional assay
T1 sequence: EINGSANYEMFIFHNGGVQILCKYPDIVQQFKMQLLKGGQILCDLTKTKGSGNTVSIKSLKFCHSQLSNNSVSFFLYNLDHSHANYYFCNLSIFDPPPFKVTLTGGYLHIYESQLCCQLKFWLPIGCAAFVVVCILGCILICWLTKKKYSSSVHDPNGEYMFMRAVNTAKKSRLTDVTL

[2] = target: T2, human fibroblast activating protein (huFAP) (human, UniProt Q12884 1-760); test: flow cytometry on NIH/3T3-huFAP clone 19 cells
T2 construct: Expressed on NIH/3T3-huFAP clone 19 cells; also called human FAP; hFAP
Protocol: (§1) This cell line was generated by the transfection of the mouse embryonic fibroblast NIH/3T3 cell line (ATCC CRL-1658) with the expression vector pETR4921 to express huFAP under […] Puromycin selection.
(§2) The staining was fixed for 20 min at 4° C. in the dark, using 75 μl of 1% PFA in FACS buffer per well. Fluorescence was analyzed by FACS using a FACS Fortessa (Software FACS Diva). Binding curves were obtained using GraphPadPrism6 and are shown in FIGS. 6A-6C and 7A-7B, respectively.

human ICOS [3] = target: T1, human ICOS; test: flow cytometry, activated human PBMCs, ICOS on CD4+ T cells
human ICOS [4] = target: T1, human ICOS; test: flow cytometry, activated human PBMCs, ICOS on CD8+ T cells
[5] = target: T2, human fibroblast activating protein …; test: flow cytometry on NIH/3T3-huFAP clone 19 cells (human FAP), PE anti-human secondary, median fluorescence intensity
Protocol: as §1, §2

human CEA = target: T3, human CEA (human, UniProt P06731 35-685); test: flow cytometry on MKN45 cells (human CEA), Alexa Fluor 647 anti-human Fc secondary, frequency of A647+ cells
T3 construct: Endogenous CEA on MKN45 human gastric adenocarcinoma cells; also called Carcinoembryonic antigen; CEACAM5
T3 sequence: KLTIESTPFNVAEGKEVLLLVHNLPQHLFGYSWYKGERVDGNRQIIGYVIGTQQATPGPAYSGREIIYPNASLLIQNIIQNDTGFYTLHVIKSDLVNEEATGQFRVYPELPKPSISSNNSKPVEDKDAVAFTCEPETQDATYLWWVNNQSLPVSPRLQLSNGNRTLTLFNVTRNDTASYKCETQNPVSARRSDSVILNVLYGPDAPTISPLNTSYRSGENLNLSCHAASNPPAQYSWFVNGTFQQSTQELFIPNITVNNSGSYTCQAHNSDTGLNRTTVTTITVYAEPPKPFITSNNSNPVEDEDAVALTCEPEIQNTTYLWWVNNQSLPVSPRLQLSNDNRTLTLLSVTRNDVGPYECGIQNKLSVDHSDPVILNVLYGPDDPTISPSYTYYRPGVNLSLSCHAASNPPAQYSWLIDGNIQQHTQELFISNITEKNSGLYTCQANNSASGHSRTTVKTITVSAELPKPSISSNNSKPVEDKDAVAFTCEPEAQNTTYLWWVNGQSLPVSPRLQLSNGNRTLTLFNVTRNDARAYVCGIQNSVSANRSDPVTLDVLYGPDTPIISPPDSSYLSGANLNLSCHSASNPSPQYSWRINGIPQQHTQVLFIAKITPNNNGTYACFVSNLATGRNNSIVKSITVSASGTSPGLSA
Protocol: Briefly, human PBMCs, isolated from either Buffy Coats or fresh blood from healthy human donors (as described in Example 5.1) were incubated in a humidified incubator at 37° C. for 48 hours in RPMI1640 medium including […] PHA-L (Roche, #11249738001) and 100 units/ml recombinant human IL-2 (“Proleukin”, Novartis) at a cell density of 1 million cells per ml.
At the day of the assay, pre-activated PBMCs cells were harvested, washed with PBS, and 0.2 million cells in FACS buffer (PBS with 0.1% BSA) were plated per well of a 96-round bottom-well plate. Likewise, adherent MKN45 tumor cells were detached using trypsin (Gibco, 25300-054), washed and 0.15 million cells were transferred into the 96-round bottom well-plate. […] Cells were washed with FACS buffer and the staining was fixed for 20 min at 4° C. in the dark, using 75 µl of 1% PFA in FACS buffer per well. Cells were washed again two times with FACS Buffer and re-suspended in FACS Buffer for analysis.
Fluorescence was analyzed by FACS using a FACS Fortessa (Software FACS Diva). Binding curves and EC₅₀ values were obtained using GraphPadPrism6.

[6] = target: T4, murine ICOS Fc(kih) Avi tag (murine, Avi tag, captured on a streptavidin chip); test: SPR, Biacore T200, 25 C, murine ICOS Fc(kih) on streptavidin chip, antibody injected 1000-31.25 nM, 1:1 Langmuir
T4 construct: also called recombinant murine ICOS Fc(kih)
Protocol: Surface plasmon resonance experiments were performed on a Biacore T200 at 25° C. with HBS-EP as running buffer (0.01 M HEPES pH 7.4, 0.15 M NaCl, 0.005% (v/v) Surfactant P20 (GE Healthcare)).
The immobilization level was approximately 600 RU. […] The dissociation phase was monitored for 500 s and triggered by switching from the sample solution to HBS-EP. The chip surface was regenerated after every cycle using one injection of 10 mM Glycine pH 3.0 for 60 s.
The affinity constants were derived from the kinetic rate constants by fitting to a 1:1 Langmuir binding using the BIAeval software (GE Healthcare).

T4 sequence (chain, as listed by the source limits assumed, chain 1 of 2): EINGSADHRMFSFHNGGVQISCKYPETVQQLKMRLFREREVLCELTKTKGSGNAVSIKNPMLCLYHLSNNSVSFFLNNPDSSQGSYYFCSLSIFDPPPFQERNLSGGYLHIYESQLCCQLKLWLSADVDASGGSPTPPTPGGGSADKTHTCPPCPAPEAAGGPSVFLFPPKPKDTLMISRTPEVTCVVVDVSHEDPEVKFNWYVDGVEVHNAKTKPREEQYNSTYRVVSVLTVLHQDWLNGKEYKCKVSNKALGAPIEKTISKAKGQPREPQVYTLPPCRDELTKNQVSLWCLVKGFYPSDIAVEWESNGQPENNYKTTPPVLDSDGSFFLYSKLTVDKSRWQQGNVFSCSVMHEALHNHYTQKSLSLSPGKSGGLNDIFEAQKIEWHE
T4 sequence (chain, as listed by the source limits assumed, chain 2 of 2): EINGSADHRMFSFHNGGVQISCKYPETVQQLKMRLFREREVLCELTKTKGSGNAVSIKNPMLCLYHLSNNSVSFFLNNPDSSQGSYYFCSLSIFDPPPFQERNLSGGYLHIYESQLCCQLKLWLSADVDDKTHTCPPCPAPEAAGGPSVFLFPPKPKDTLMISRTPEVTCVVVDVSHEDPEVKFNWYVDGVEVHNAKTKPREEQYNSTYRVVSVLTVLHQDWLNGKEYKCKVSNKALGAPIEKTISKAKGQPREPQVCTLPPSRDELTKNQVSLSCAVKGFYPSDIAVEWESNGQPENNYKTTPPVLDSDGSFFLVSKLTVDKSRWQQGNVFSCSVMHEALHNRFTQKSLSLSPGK

Binder | Fold increase vs TCB only at 200 pM CEA-ICOS (% CD69^+CD4^+), Donor 1 (D1) (human ICOS [1]) [fold] | Fold increase vs TCB only at 200 pM CEA-ICOS (% CD69^+CD4^+), Donor 2 (D2) (human ICOS [1]) [fold] | Fold increase vs TCB only at 1000 pM CEA-ICOS (% CD69^+CD4^+), Donor 1 (D1) (human ICOS [1]) [fold] | Fold increase vs TCB only at 1000 pM CEA-ICOS (% CD69^+CD4^+), Donor 2 (D2) (human ICOS [1]) [fold] | EC50 [2] [nM] | EC50 (human ICOS [3]) [nM] | EC50 (human ICOS [4]) [nM] | EC50 (read off the curve) [5] [nM] | binding result [5] | EC50 (read off the curve) (human CEA) [nM] | Kd [6] [nM] | koff [6] [s⁻¹] | kon [6] [M⁻¹ s⁻¹]
FAP-ICOS_1+1, huIgG1 P329G LALA, monovalent ICOS (JMAb136), monovalent FAP (4B9) (bispecific antibody, also called ICOS-FAP 1+1; ICOS(JMab136)-FAP(4B9) 1 + 1) heavy 1: not shown light 1: DIQMTQSPSSVSASVGDRVTITCRASQGISRLLAWYQQKPGKAPKLLIYVASSLQSGVPSRFSGSGSGTDFTLTISSLQPEDFATYYCQQANSFPWTFGQGTKVEIKRTVAAPSVFIFPPSDRKLKSGTASVVCLLNNFYPREAKVQWKVDNALQSGNSQESVTEQDSKDSTYSLSSTLTLSKADYEKHKVYACEVTHQGLSSPVTKSFNRGEC heavy 2: EIVLTQSPGTLSLSPGERATLSCRASQSVTSSYLAWYQQKPGQAPRLLINVGSRRATGIPDRFSGSGSGTDFTLTISRLEPEDFAVYYCQQGIMLPPTFGQGTKVEIKSSASTKGPSVFPLAPSSKSTSGGTAALGCLVKDYFPEPVTVSWNSGALTSGVHTFPAVLQSSGLYSLSSVVTVPSSSLGTQTYICNVNHKPSNTKVDKKVEPKSCDKTHTCPPCPAPEAAGGPSVFLFPPKPKDTLMISRTPEVTCVVVDVSHEDPEVKFNWYVDGVEVHNAKTKPREEQYNSTYRVVSVLTVLHQDWLNGKEYKCKVSNKALGAPIEKTISKAKGQPREPQVCTLPPSRDELTKNQVSLSCAVKGFYPSDIAVEWESNGQPENNYKTTPPVLDSDGSFFLVSKLTVDKSRWQQGNVFSCSVMHEALHNHYTQKSLSLSP light 2: EVQLLESGGGLVQPGGSLRLSCAASGFTFSSYAMSWVRQAPGKGLEWVSAIIGSGASTYYADSVKGRFTISRDNSKNTLYLQMNSLRAEDTAVYYCAKGWFGGFNYWGQGTLVTVSSASVAAPSVFIFPPSDEQLKSGTASVVCLLNNFYPREAKVQWKVDNALQSGNSQESVTEQDSKDSTYSLSSTLTLSKADYEKHKVYACEVTHQGLSSPVTKSFNRGEC | 2.5 | 1.5 | 2.65 | 1.68 | 2.98 | 34.9 | 50.7 | ~3 |  |  |  |  | 
DP47-ICOS_2+1, huIgG1 P329G LALA, bivalent ICOS (JMAb136), monovalent DP47 (bispecific antibody, Untargeted control, human IgG1 P329G LALA, bivalent for ICOS; also called ICOS-DP47 control molecule; untargeted DP47-ICOS) heavy 1: not shown heavy 2: not shown light: DIQMTQSPSSVSASVGDRVTITCRASQGISRLLAWYQQKPGKAPKLLIYVASSLQSGVPSRFSGSGSGTDFTLTISSLQPEDFATYYCQQANSFPWTFGQGTKVEIKRTVAAPSVFIFPPSDRKLKSGTASVVCLLNNFYPREAKVQWKVDNALQSGNSQESVTEQDSKDSTYSLSSTLTLSKADYEKHKVYACEVTHQGLSSPVTKSFNRGEC |  |  |  |  |  | 9.99 | 12.4 |  | no binding (tested: about 120000 pM) |  |  |  | 
ICOS(JMab136)-CEA(MEDI-565) 1+1, CEA-ICOS_1+1, huIgG1 P329G LALA, monovalent ICOS (JMAb136), monovalent CEA (MEDI-565) (bispecific antibody, Human IgG1 P329G LALA, knob-into-hole; also called CEA(MEDI565)-ICOS(JMAb136)_1 + 1) heavy 1: not shown light 1: DIQMTQSPSSVSASVGDRVTITCRASQGISRLLAWYQQKPGKAPKLLIYVASSLQSGVPSRFSGSGSGTDFTLTISSLQPEDFATYYCQQANSFPWTFGQGTKVEIKRTVAAPSVFIFPPSDRKLKSGTASVVCLLNNFYPREAKVQWKVDNALQSGNSQESVTEQDSKDSTYSLSSTLTLSKADYEKHKVYACEVTHQGLSSPVTKSFNRGEC heavy 2: not shown light 2: EVQLVESGGGLVQPGRSLRLSCAASGFTVSSYWMHWVRQAPGKGLEWVGFIRNKANGGTTEYAASVKGRFTISRDDSKNTLYLQMNSLRAEDTAVYYCARDRGLRFYFDYWGQGTTVTVSSASVAAPSVFIFPPSDEQLKSGTASVVCLLNNFYPREAKVQWKVDNALQSGNSQESVTEQDSKDSTYSLSSTLTLSKADYEKHKVYACEVTHQGLSSPVTKSFNRGEC | 4.99 | 2.91 | 5.95 | 2.47 |  |  |  |  |  | ~0.05 |  |  | 
FAP-ICOS_1+1_HT, huIgG1 P329G LALA, monovalent ICOS (JMAb136), monovalent FAP (4B9) c-terminal fused of the heavy chain C region (bispecific antibody, Human IgG1 P329G LALA, knob-into-hole; 4B9 VH and VL fused to the C-termini of the two Fc chains; also called ICOS-FAP 1+1 HT; 1+1 head-to-tail) heavy 1: not shown heavy 2: DKTHTCPPCPAPEAAGGPSVFLFPPKPKDTLMISRTPEVTCVVVDVSHEDPEVKFNWYVDGVEVHNAKTKPREEQYNSTYRVVSVLTVLHQDWLNGKEYKCKVSNKALGAPIEKTISKAKGQPREPQVCTLPPSRDELTKNQVSLSCAVKGFYPSDIAVEWESNGQPENNYKTTPPVLDSDGSFFLVSKLTVDKSRWQQGNVFSCSVMHEALHNHYTQKSLSLSPGGGGGSGGGGSGGGGSGGGGSEIVLTQSPGTLSLSPGERATLSCRASQSVTSSYLAWYQQKPGQAPRLLINVGSRRATGIPDRFSGSGSGTDFTLTISRLEPEDFAVYYCQQGIMLPPTFGQGTKVEIK light: DIQMTQSPSSVSASVGDRVTITCRASQGISRLLAWYQQKPGKAPKLLIYVASSLQSGVPSRFSGSGSGTDFTLTISSLQPEDFATYYCQQANSFPWTFGQGTKVEIKRTVAAPSVFIFPPSDRKLKSGTASVVCLLNNFYPREAKVQWKVDNALQSGNSQESVTEQDSKDSTYSLSSTLTLSKADYEKHKVYACEVTHQGLSSPVTKSFNRGEC |  |  |  |  | 6.73 | 42.6 | 56.4 |  |  |  |  |  | 
FAP-ICOS_2+1, huIgG1 P329G LALA, bivalent ICOS (JMAb136), monovalent FAP (4B9) (bispecific antibody, Human IgG1 P329G LALA, knob-into-hole; also called ICOS-FAP 2+1; ICOS(JMab136)-FAP(4B9) 2 + 1) heavy 1: not shown heavy 2: not shown light: DIQMTQSPSSVSASVGDRVTITCRASQGISRLLAWYQQKPGKAPKLLIYVASSLQSGVPSRFSGSGSGTDFTLTISSLQPEDFATYYCQQANSFPWTFGQGTKVEIKRTVAAPSVFIFPPSDRKLKSGTASVVCLLNNFYPREAKVQWKVDNALQSGNSQESVTEQDSKDSTYSLSSTLTLSKADYEKHKVYACEVTHQGLSSPVTKSFNRGEC | 2.66 | 1.38 | 2.66 | 1.96 | 5.19 | 10.7 | 14.4 |  |  |  |  |  | 
DP47-ICOS_1+1, huIgG1 P329G LALA, monovalent ICOS (JMAb136), monovalent DP47 (bispecific antibody, Untargeted control, human IgG1 P329G LALA; also called ICOS-DP47 control molecule; untargeted DP47-ICOS) heavy 1: not shown light 1: DIQMTQSPSSVSASVGDRVTITCRASQGISRLLAWYQQKPGKAPKLLIYVASSLQSGVPSRFSGSGSGTDFTLTISSLQPEDFATYYCQQANSFPWTFGQGTKVEIKRTVAAPSVFIFPPSDRKLKSGTASVVCLLNNFYPREAKVQWKVDNALQSGNSQESVTEQDSKDSTYSLSSTLTLSKADYEKHKVYACEVTHQGLSSPVTKSFNRGEC heavy 2: not shown light 2: not shown |  |  |  |  |  | 19.9 | 25.7 |  | no binding (tested: about 120000 pM) |  |  |  | 
anti-ICOS 16E09 IgG1 P329G LALA antibody (antibody, V domains shown, also called phage-derived ICOS-specific antibody 16E09) VH: EVQLVQSGAEVKKPGESLKISCKGSGYSFTSYWIGWVRQMPGKGLEWMGIIYPGDSDTRYSPSFQGQVTISADKSISTAYLQWSSLKASDTAMYYCARSSGPYGLYLDYWGQGTLVTVSS VL: not shown |  |  |  |  |  |  |  |  |  |  | 180 | 0.0192 | 144000
